# Laboratory results taken from patent US20220089743A1 (Chugai, published 2022).
# Where two headings read alike, the source gives them in different places.
# B1: DQN0344H1013/L0620//DQN0385H1521/L0605-F6 (bispecific antibody)
# heavy 1: QVQLVESGGGVVQPGRSLRLSCAASGFTFSSAYWMVWVRQAPGQGLEWMGAVYGGSDTTYYAKWTEGRFTISRDTSKNTLYLQMNSLRAEDTAVYYCAREPLNYYYYGELNVWGQGTLVTVSSASTKGPSVFPLAPSSKSTSGGTAALGCLVKDYFPEPVTVSWNSGALTSGVHTFPAVLKSSGLYSLSSVVTVPSSSLGTQTYICNVNHKPSNTKVDKRVEPKSCDKTHTCPPCPAPELRRGPSVFLFPPKPKDTLMISRTPEVTCVVVDVSHEDPEVKFNWYVDGVEVHNAKTKPREEQYNSTYRVVSVLTVLHQDWLNGKEYKCKVSNKALPAPIEKTISKAKGQPREPQVYTLPPSREEMTKNQVSLTCLVKGFYPSDIAVEWESNGQPENNYKTTPPYLDSDGSFFLYSKLTVDKSRWQEGNVFSCSVLHEALHAHYTREELSLSP
# light 1: DIQMTQSPSSLSASVGDRVTITCQATENIYSGLAWYQQKPGKAPKLLIYYVSTLAYGIPARFSGSGSGTDFTLTISSLEPEDFAVYYCQTYEDVSAVTFGQGTKVEIKRTVAAPSVFIFPPSDEQLKSGTAEVVCLLNNFYPREAKVQWKVDNALQSGNSEESVTEQDSKDSTYSLSSTLTLSKADYEKHKVYACEVTHQGLSSPVTKSFNRGEC
# heavy 2: QVQLVESGGGVVQPGRSLRLSCAASGFTFESWYFMSWVRQAPGKGLEWVASIDTGSGSIDYAEWVEGRFTISRDNSKNTLYLQMNSLRAEDTAVYYCARDIGIDYNFWGPGTLVTVSSASTKGPSVFPLAPSSKSTSGGTAALGCLVEDYFPEPVTVSWNSGALTSGVHTFPAVLESSGLYSLSSVVTVPSSSLGTKTYICNVNHKPSNTKVDKRVEPKSCDKTHTCPPCPAPELRRGPSVFLFPPKPKDTLMISRTPEVTCVVVDVSHEDPEVKFNWYVDGVEVHNAKTKPREEQYNSTYRVVSVLTVLHQDWLNGKEYKCKVSNKALPAPIEKTISKAKGQPREPQVYTLPPSRKEMTKNQVSLTCLVKGFYPSDIAVEWESNGQPENNYKTTPPYLDSDGSFFLYSKLTVDKSRWQQGNVFSCSVLHEALHAHYTRKELSLSP
# light 2: DIQMTQSPSSLSASVGDRVTITCQTTQSISSYLNWYQQKPGQPPKLLIYYASTKAEGIPARFSGSGSGTDFTLTISSLEPEDFAVYYCHYGISKVSFGQGTKVEIKRTVAAPSVFIFPPSDEQLKSGTAKVVCLLNNFYPREAKVQWKVDNALQSGNSKESVTEQDSKDSTYSLSSTLTLSKADYEKHKVYACEVTHQGLSSPVTKSFNRGEC
# B2: DQN0344H1013/L0620//DQN0385H1270/L0681-F6.v2 (bispecific antibody, V domains shown)
# VH 1: QVQLVESGGGVVQPGRSLRLSCAASGFTFSSAYWMVWVRQAPGQGLEWMGAVYGGSDTTYYAKWTEGRFTISRDTSKNTLYLQMNSLRAEDTAVYYCAREPLNYYYYGELNVWGQGTLVTVSS
# VL 1: DIQMTQSPSSLSASVGDRVTITCQATENIYSGLAWYQQKPGKAPKLLIYYVSTLAYGIPARFSGSGSGTDFTLTISSLEPEDFAVYYCQTYEDVSAVTFGQGTKVEIK
# VH 2: QVQLVESGGGVVQPGRSLRLSCAASGFTFSEWYFMSWVRQAPGKGLEWVASIDTGSGSIDYAEWVEGRFTISRDNSKNTLYLQMNSLRAEDTAVYYCARDIGIDYNFWGPGTLVTVSS
# VL 2: DIQMTQSPSSLSASVGDRVTITCQTTQSISSYLNWYQQKPGQPPKLLIYYASTKAEGIPARFSGSGLGTDFTLTISSLEPEDFAVYYCHYGISKVSFGQGTKVEIK
# Tests used:
# [1] = molecular target: T1, HLA-DQ2.5 on IHW09023 cells loaded with gamma 1 gliadin peptide (human; wheat); experiment: cell-based or functional assay
# [2] = molecular target: T2, HLA-DQ2.5 on IHW09023 cells loaded with omega1/2 gliadin peptide (human; wheat); experiment: cell-based or functional assay
# [3] = molecular target: T3, HLA-DQ2.5 on IHW09023 cells loaded with gamma 4a gliadin peptide (human; wheat); experiment: cell-based or functional assay
# [4] = molecular target: T4, HLA-DQ2.5 on IHW09023 cells loaded with gamma 2 gliadin peptide (human; wheat); experiment: cell-based or functional assay
# [5] = molecular target: T5, HLA-DQ2.5 on IHW09023 cells loaded with gamma 3 gliadin peptide (human; wheat); experiment: cell-based or functional assay
# [6] = molecular target: T6, HLA-DQ2.5 on IHW09023 cells loaded with 33 mer gliadin peptide (human; wheat); experiment: cell-based or functional assay
# [7] = molecular target: T7, HLA-DQ2.5 on IHW09023 cells loaded with gamma 4d gliadin peptide (human; wheat); experiment: cell-based or functional assay
# [8] = molecular target: T8, HLA-DQ2.5 on IHW09023 cells loaded with BC hordein peptide (human; barley); experiment: cell-based or functional assay
# HLA-DR on Ba/F3 cells = molecular target: T9, HLA-DR on Ba/F3 cells (human, UniProt P01903 26-216; P79483 30-227, limits assumed); experiment: FACS, Ba/F3 cells; raw MFI
# T9 construct: whole, on cells; also called Ba/F3-HLA-DR
# T9 MHC II alpha: not shown
# T9 MHC II beta: not shown
# HLA-DQ6.3 on Ba/F3 cells = molecular target: T10, HLA-DQ6.3 on Ba/F3 cells (human, UniProt P01920 33-230, limits assumed); experiment: FACS, Ba/F3 cells; raw MFI
# T10 construct: whole, on cells; also called Ba/F3-HLA-DQ6.3
# T10 MHC II alpha: not shown
# T10 MHC II beta: not shown
# HLA-DQ5.1 on Ba/F3 cells = molecular target: T11, HLA-DQ5.1 on Ba/F3 cells (human, limits assumed); experiment: FACS, Ba/F3 cells; raw MFI
# T11 construct: whole, on cells; also called Ba/F3-HLA-DQ5.1
# T11 MHC II alpha: not shown
# T11 MHC II beta: not shown
# HLA-DP on Ba/F3 cells = molecular target: T12, HLA-DP on Ba/F3 cells (human, UniProt P20036 29-222; P04440 30-225, limits assumed); experiment: FACS, Ba/F3 cells; raw MFI
# T12 construct: whole, on cells; also called Ba/F3-HLA-DP
# HLA-DQ2.5 on Ba/F3 cells = molecular target: T13, HLA-DQ2.5 on Ba/F3 cells (human, UniProt P01909 24-216, limits assumed); experiment: FACS, Ba/F3 cells; %MFI with IC17dK 0 and DQN0139bb 100
# T13 construct: whole, on cells; MHC class II without a fused peptide; also called Ba/F3-HLA-DQ2.5
# HLA-DQ8 on Ba/F3 cells = molecular target: T14, HLA-DQ8 on Ba/F3 cells (human, UniProt P01909 24-216; P01920 33-230, limits assumed); experiment: as above
# T14 construct: whole, on cells; also called Ba/F3-HLA-DQ8
# T14 MHC II alpha: not shown
# T14 MHC II beta: not shown
# HLA-DQ7.3 on Ba/F3 cells = molecular target: T15, HLA-DQ7.3 on Ba/F3 cells (human, UniProt P01909 24-216; P01920 33-230, limits assumed); experiment: as above
# T15 construct: whole, on cells; also called Ba/F3-HLA-DQ7.3
# T15 MHC II alpha: not shown
# T15 MHC II beta: not shown
# HLA-DQ7.5 on Ba/F3 cells = molecular target: T16, HLA-DQ7.5 on Ba/F3 cells (human, UniProt P01909 24-216; P01920 33-230, limits assumed); experiment: as above
# T16 construct: whole, on cells; also called Ba/F3-HLA-DQ7.5
# HLA-DQ2.2 on Ba/F3 cells = molecular target: T17, HLA-DQ2.2 on Ba/F3 cells (human, UniProt P01909 24-216, limits assumed); experiment: as above
# T17 construct: whole, on cells; also called Ba/F3-HLA-DQ2.2
# T17 MHC II alpha: not shown
# T17 MHC II beta: not shown
# [9] = molecular target: T1, HLA-DQ2.5 on IHW09023 cells loaded with …; experiment: cell-based or functional assay; remark: listed apart in the source
# [10] = molecular target: T2, HLA-DQ2.5 on IHW09023 cells loaded with …; experiment: cell-based or functional assay; remark: listed apart in the source
# [11] = molecular target: T3, HLA-DQ2.5 on IHW09023 cells loaded with …; experiment: cell-based or functional assay; remark: listed apart in the source
# [12] = molecular target: T4, HLA-DQ2.5 on IHW09023 cells loaded with …; experiment: cell-based or functional assay; remark: listed apart in the source
# [13] = molecular target: T5, HLA-DQ2.5 on IHW09023 cells loaded with …; experiment: cell-based or functional assay; remark: listed apart in the source
# [14] = molecular target: T6, HLA-DQ2.5 on IHW09023 cells loaded with …; experiment: cell-based or functional assay; remark: listed apart in the source
# [15] = molecular target: T7, HLA-DQ2.5 on IHW09023 cells loaded with …; experiment: cell-based or functional assay; remark: listed apart in the source
# [16] = molecular target: T8, HLA-DQ2.5 on IHW09023 cells loaded with …; experiment: cell-based or functional assay; remark: listed apart in the source
# [17] = molecular target: HLA-DQ2.2 on HBBB2.2 cells loaded with 33 mer gliadin peptide (human; wheat); experiment: cell-based or functional assay
# T12 sequence (P20036 29-222 limits assumed, chain 1 of 4, other chains not shown): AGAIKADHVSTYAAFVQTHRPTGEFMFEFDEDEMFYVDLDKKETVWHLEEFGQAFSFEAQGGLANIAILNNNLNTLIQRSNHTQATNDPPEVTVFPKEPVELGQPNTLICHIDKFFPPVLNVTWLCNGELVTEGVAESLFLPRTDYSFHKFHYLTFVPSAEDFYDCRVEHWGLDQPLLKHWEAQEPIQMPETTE
# T12 sequence (P04440 30-225 limits assumed, chain 2 of 4, other chains not shown): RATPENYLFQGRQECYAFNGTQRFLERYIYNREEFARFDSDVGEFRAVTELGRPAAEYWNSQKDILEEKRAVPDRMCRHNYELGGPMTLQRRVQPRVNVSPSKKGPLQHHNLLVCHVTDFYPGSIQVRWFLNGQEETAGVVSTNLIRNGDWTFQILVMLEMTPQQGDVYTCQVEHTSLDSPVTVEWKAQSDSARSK
binder,measurement,setting,value
B1,"IC50, γ1 gliadin TCR, 250 nM γ1 gliadin",[1],0.68 ng/mL
same,"IC50, ω1 gliadin TCR, 25 µM ω1/2 gliadin",[2],1.91 ng/mL
same,"IC50, γ4a gliadin TCR, 25 µM γ4a gliadin",[3],1350 ng/mL
same,"IC50, γ2 gliadin TCR, 250 nM γ2 gliadin",[4],853 ng/mL
same,"IC50, γ3 gliadin TCR, 100 µM γ3 gliadin",[5],1.4 ng/mL
same,"IC50, α1a gliadin TCR, 250 nM 33mer gliadin",[6],0.28 ng/mL
same,"IC50, α1b gliadin TCR, 250 nM 33mer gliadin",[6],1.76 ng/mL
same,"IC50, α2 gliadin TCR, 250 nM 33mer gliadin",[6],0.33 ng/mL
same,"IC50, γ4d gliadin TCR, 100 µM γ4d gliadin",[7],13 ng/mL
same,"IC50, BC hordein TCR, 250 nM BC hordein",[8],8.98 ng/mL
same,binding result,HLA-DR on Ba/F3 cells,no binding (tested: 0.05 ug/mL)
same,binding result,HLA-DQ6.3 on Ba/F3 cells,no binding (tested: 0.05 ug/mL)
same,binding result,HLA-DQ5.1 on Ba/F3 cells,no binding (tested: 0.05 ug/mL)
same,binding result,HLA-DP on Ba/F3 cells,no binding (tested: 0.05 ug/mL)
same,binding result,HLA-DQ2.5 on Ba/F3 cells,no binding (tested: 0.05 ug/mL)
same,binding result,HLA-DQ8 on Ba/F3 cells,no binding (tested: 0.05 ug/mL)
same,binding result,HLA-DQ7.3 on Ba/F3 cells,no binding (tested: 0.05 ug/mL)
same,binding result,HLA-DQ7.5 on Ba/F3 cells,no binding (tested: 0.05 ug/mL)
same,binding result,HLA-DQ2.2 on Ba/F3 cells,no binding (tested: 0.05 ug/mL)
B2,"IC50, γ1 gliadin TCR, 250 nM γ1 gliadin",[9],5.85 ng/mL
same,"IC50, ω1 gliadin TCR, 25 µM ω1/2 gliadin",[10],3.19 ng/mL
same,"IC50, ω2 gliadin TCR, 250 nM ω1/2 gliadin",[10],0.49 ng/mL
same,"IC50, γ4a gliadin TCR, 25 µM γ4a gliadin",[11],1980 ng/mL
same,"IC50, γ2 gliadin TCR, 250 nM γ2 gliadin",[12],280 ng/mL
same,"IC50, γ3 gliadin TCR, 100 µM γ3 gliadin",[13],4.84 ng/mL
same,"IC50, α1a gliadin TCR, 250 nM 33mer gliadin",[14],0.63 ng/mL
same,"IC50, α1b gliadin TCR, 250 nM 33mer gliadin",[14],1.42 ng/mL
same,"IC50, α2 gliadin TCR, 250 nM 33mer gliadin",[14],0.53 ng/mL
same,"IC50, γ4d gliadin TCR, 100 µM γ4d gliadin",[15],27.8 ng/mL
same,"IC50, BC hordein TCR, 250 nM BC hordein",[16],25.2 ng/mL
same,"IC50, HLA-DQ2.2, α1a gliadin TCR, 25 µM 33mer gliadin",[17],1.62 ng/mL
same,"IC50, HLA-DQ2.2, α2 gliadin TCR, 1 µM 33mer gliadin",[17],4.6 ng/mL
